Reference: PMC5024704

Assays:
[1] = target: SgcC FADH2-dependent monooxygenase (Streptomyces globisporus); assay: SEC
[2] = target: SgcE6 flavin reductase (Streptomyces globisporus); assay: SEC

Substance | stoichiometry N [1] | stoichiometry N [2]
SgcC FADH2-dependent monooxygenase (enzyme) | 4 | 
SgcE6 flavin reductase (enzyme) |  | 2
